Laboratory results taken from patent publication US20240132572A1.
pKd: −log10 of the molar value.

Key:
[1] = biological target: IFN alpha receptor (IFNAR) (UniProt P17181); experiment: cell-based or functional assay
[2] = biological target: IFN-alpha receptor 1 (IFNAR1) (UniProt P17181); experiment: SPR (Biacore X100); rhIFNAR2 immobilised on CM5 chip; 6.25-100 nM IFN fusion mixed with 100 nM IFNAR1 injected (ternary complex)

Row | IC50 (nM), antiviral activity (cytopathic effect inhibition, A549 cells, EMCV) [1] | pKd [2] | inhibition of osteopontin (OPN) production in stimulated human PBMC at 1.5 ng/mL [1] | inhibition of osteopontin (OPN) production in stimulated human PBMC at 10 ng/mL [1] | Substance
1 | 0.0313 nM | 7.74 | – | – | interferon alpha Fc fusion protein (IFNα-Fc)
2 | – | – | 88.4% | 81.3% | natural fibroblast derived human IFNβ-1a (Rebif®) (from UniProt P01574 22-187) (ligand)
